For 83 variants, reverse-splicing fitness results are on record in the RNAGym collection of RNA variant scans (doi:10.1093/molbev/msab373).

The chains are these.
B1: Azoarcus group I ribozyme (parent)
chain: GUGCCUUGCGCCGGGAAACCACGCAAGGGAUGGUGUCAAAUUCGGCGAAACCUAAGCGCCCGCCCGGGCGUAUGGCAACGCCGAGCCAAGCUUCGGCGCCUGCGCCGAUGAAGGUGUAGAGACUAGACGGCACCCACCUAAGGCAAACGCUAUGGUGAAGGCAUAGUCCAGGGAGUGGCGAAAGUCACACAAACCGG

Variants of B1 are the subject of this data set. The data set is described as follows: reverse-splicing fitness (ratio to wild type); higher = more active; in vitro selection; Mg2+ level not given. The method, boiled down: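 An in vitro group I ribozyme library with randomized positions was T7-transcribed and gel-purified. In triplicate, 10 pmol RNA in EPPS pH 7.5 was reacted with 50 pmoles of a 30-nt RNA substrate for 1 h at 37 °C across several added MgCl2 levels (1–48 mM), then stopped with EDTA. Products were reverse transcribed from a substrate-complementary primer, PCR-amplified and sequenced (HiSeq 4000). Fitness is a variant's read proportion after selection over that before, normalised to wild type.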
With A111G A145G U176A, the reverse-splicing fitness was 0.751. Next, A111G A145G U176C: 0.779; A111G A145G U176G: 0.333. Under A111U A120C A145C C150A stands 0.0343; under A111U A120C A145C C150U, 0.17. Under A111U A120C A145C C150G stands 0.0767. For A111G A145G C169U U176G, the reverse-splicing fitness was found to be 0.00661. A111G A145G C169U U176A: the reverse-splicing fitness amounted to 0.0478. Under A111G A145G C169U U176C stands 0.0655; under A111U A120C A145G C150A U176G, 0.013; under A111U A120C A145G C150A U176C, 0.0785. Under A111U A120C A145G C150A U176A stands 0.0518. Next, A111G A145U C150U C169A U176C: 0.0144.

In the case of A111G A145U C150U C169A U176A, the reverse-splicing fitness was 0.0142. Next, A111G A145U C150U C169A U176G: 0.00557; A111U A120C A145G C150A C169U: 0.034; A111U A120C A145G C150A C169G: 0.00836.

For A111U A120C A145G C150A C169A, the reverse-splicing fitness stood at 0.0121.

Turning to A111G A145C C150U C169U U176G, the reverse-splicing fitness was 0.0062. Next, A111G A145C C150U C169U U176A: 0.0217. Next, A111G A145C C150U C169U U176C: 0.0247. Under A111U A120C A145C C150A C169U U176A stands 0.0169; under A111U A120C A145C C150A C169U U176G, 0.00524. A111U A120C A145C C150A C169U U176C: the reverse-splicing fitness is 0.0123.

For the variant A111G C150U C169G U176G, the reverse-splicing fitness was 0.00579.

Take A111G C150U C169G U176A: the reverse-splicing fitness is 0.0243.

As for A111G C150U C169G U176C, the reverse-splicing fitness is 0.0386.

As for A111U A120C A145C C150U C169U U176A, the reverse-splicing fitness was 0.0199. A111U A120C A145C C150U C169U U176G: the reverse-splicing fitness was 0.0056. As to A111U A120C A145C C150U C169U U176C, the reverse-splicing fitness was determined as 0.0178. With A111U A120C A145C C150G C169A, the reverse-splicing fitness was 0.00818. Under A111U A120C A145C C150G C169G stands 0.00716; under A111U A120C A145C C150G C169U, 0.0236; under A111G C150A C169A U176A, 0.0171.

For the variant A111G C150A C169A U176C, the reverse-splicing fitness amounted to 0.0177. Under A111G C150A C169A U176G stands 0.00678; under A111G A145U C150U C169G, 0.0749. Next, A111G A145U C150U C169U: 0.132; A111G A145U C150U C169A: 0.0341; A111G A145C C150G C169U U176C: 0.0138. Next, A111G A145C C150G C169U U176A: 0.00841. As for A111G A145C C150G C169U U176G, the reverse-splicing fitness was 0.00527.

As for A111G C150U C169A U176G, the reverse-splicing fitness turned out to be 0.00554. Under A111G C150U C169A U176A stands 0.0169.

Turning to A111G C150U C169A U176C, the reverse-splicing fitness stood at 0.0193.

For A111G A145G C150A C169A U176C, the reverse-splicing fitness worked out at 0.0214. A111G A145G C150A C169A U176G: the reverse-splicing fitness is 0.00563. Next, A111G A145G C150A C169A U176A: 0.0183; A111G A145G C150G C169A U176A: 0.0122. Under A111G A145G C150G C169A U176G stands 0.00761; under A111G A145G C150G C169A U176C, 0.0135; under A111G C150A U176C, 0.264. Next, A111G C150A U176A: 0.275.

For A111G C150A U176G, the reverse-splicing fitness is 0.103. Under A111G A145C C150U U176A stands 0.456; under A111G A145C C150U U176G, 0.23. For A111G A145C C150U U176C, the reverse-splicing fitness is 0.491. Under A111G C150G C169G U176G stands 0.00539. For the variant A111G C150G C169G U176A, the reverse-splicing fitness amounted to 0.00723. Under A111G C150G C169G U176C stands 0.00463.

In the case of A111G A145G C150U C169A U176A, the reverse-splicing fitness turned out to be 0.0193. With A111G A145G C150U C169A U176C, the reverse-splicing fitness was determined as 0.0252. Consider A111G A145G C150U C169A U176G, for which the reverse-splicing fitness worked out at 0.00505. Consider A111G A145U C150A C169U U176C, for which the reverse-splicing fitness was found to be 0.0165. Under A111G A145U C150A C169U U176G stands 0.00519.

For A111G A145U C150A C169U U176A, the reverse-splicing fitness came to 0.0162. Next, A111G A145U C169G: 0.13. Next, A111G A145U C169A: 0.0537.

In the case of A111G A145U C169U, the reverse-splicing fitness is 0.194.

As for A111U A120C A145C C150A U176G, the reverse-splicing fitness is 0.00877. Next, A111U A120C A145C C150A U176C: 0.0236; A111U A120C A145C C150A U176A: 0.0267.

Take A111U A120C A145C C169A U176A: the reverse-splicing fitness worked out at 0.00934. For the variant A111U A120C A145C C169A U176C, the reverse-splicing fitness was 0.00538. Under A111U A120C A145C C169A U176G stands 0.00493.

For the variant A111U A120C A145G C150G C169A U176A, the reverse-splicing fitness amounted to 0.0117. Under A111U A120C A145G C150G C169A U176G stands 0.00732; under A111U A120C A145G C150G C169A U176C, 0.0123; under A111G A145C C169A U176G, 0.00444. Next, A111G A145C C169A U176C: 0.0139; A111G A145C C169A U176A: 0.0126.

As to A111G A145U C150G C169U, the reverse-splicing fitness came out at 0.0229. For the variant A111G A145U C150G C169A, the reverse-splicing fitness turned out to be 0.0108.
